Measurements from PMC4988983.

How the values were obtained:
[1] = molecular target: 2-Cys peroxiredoxin from Anabaena sp. PCC 7120 (Anabaena sp. PCC 7120 (endogenous in Anabaena cells)); test: SEC; soluble extracts (200 µg total protein) of untreated Anabaena cells (0 h) on Superdex 200 HR 10/30, 50 mM KH2PO4 pH 7.1, 150 mM NaCl, 0.5 ml/min; fractions read by Western blot
[2] = molecular target: 2-Cys peroxiredoxin from Anabaena sp. PCC 7120 (Anabaena sp. PCC 7120 (endogenous in Anabaena cells)); test: non-reducing SDS-PAGE with Western blot; soluble extracts of Anabaena WT and ΔntrC cells treated with H2O2, methyl viologen or high light; dimer and monomer bands of 2-Cys Prx
[3] = molecular target: NADPH-thioredoxin reductase C from Anabaena sp. PCC 7120 (Anabaena sp. PCC 7120 (endogenous in Anabaena cells)); test: SEC; soluble extracts (200 µg total protein) of untreated Anabaena cells (0 h) on Superdex 200 HR 10/30, 50 mM KH2PO4 pH 7.1, 150 mM NaCl, 0.5 ml/min; fractions read by Western blot

Row | stoichiometry N [1] | stoichiometry N [2] | stoichiometry N [3] | Substance
1 | 2 | 2 |  | 2-Cys peroxiredoxin from Anabaena sp. PCC 7120 (enzyme)
2 |  |  | 2 | NADPH-thioredoxin reductase C from Anabaena sp. PCC 7120 (enzyme)
